Assay results: patent US20030224521, “Enhanced homologous recombination mediated by lambda recombination proteins” (The Gov. of the USA Secretary of the Department of Health …, published 2003)

T1: lambda Beta (Bet) (Bacteriophage lambda, UniProt P03698 P03698:1-261)
T1 sequence: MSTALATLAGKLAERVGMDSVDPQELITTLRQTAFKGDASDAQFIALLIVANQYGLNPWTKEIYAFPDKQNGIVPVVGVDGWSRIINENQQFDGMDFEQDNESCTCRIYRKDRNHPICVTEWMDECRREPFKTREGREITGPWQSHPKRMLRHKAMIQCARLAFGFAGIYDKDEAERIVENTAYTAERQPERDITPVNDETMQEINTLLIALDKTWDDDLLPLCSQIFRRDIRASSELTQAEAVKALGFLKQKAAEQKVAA

B1: galK 50-mer oligo (ssDNA)
DNA: CGGAACCGTATTGCAGCAGCTTTATCATCTGCCGCTGGACGGCGCACAAA
B2: galK 60-mer oligo (ssDNA)
DNA: GCGGTCGGAACCGTATTGCAGCAGCTTTATCATCTGCCGCTGGACGGCGCACAAATCGCG
B3: galK 20-mer oligo (ssDNA)
DNA: GCAGCTTTATCATCTGCCGC
B4: galK 30-mer oligo (ssDNA)
DNA: TTGCAGCAGCTTTATCATCTGCCGCTGGAC
B5: galK 40-mer oligo (ssDNA)
DNA: CCGTATTGCAGCAGCTTTATCATCTGCCGCTGGACGGCGC

Each binder was assayed against T1, lambda Beta (Bet) (assay: cell_activity; HME9, Exo and Gam co-expressed). Details: tags: expressed from pL of defective prophage in E. coli.
Protocol: Using the methods described in Examples 2, 3, 5, 10 and 11, lambda operon expression was heat-induced, cells were rendered electroporation-competent, and ssDNA oligonucleotides (200 ng each) were electroporated into E. coli HME9 strain cells. The electroporated ssDNA oligonucleotides included the 70-mer of SEQ ID NO: 11, a 60-mer constructed by removing the last 5 nucleotides from both the 5′ and 3′ ends of SEQ ID NO: 11, and a 50-mer, 40-mer, 30-mer, or 20-mer constructed by removing the last 10, 15, 20, or 25 nucleotides, respectively, from both the 5′ and 3′ ends of SEQ ID NO: 11. As in example 10, the ssDNA oligonucleotides used in this experiment were all designed to restore the galK+ gene upon successful recombination, thereby conferring upon the cell a Gal+ phenotype. Table 7 indicates the number of galK+ recombinants per viable cell, […].

Binder	activity
B1	0.0004 recombinants per viable cell
B2	0.0006 recombinants per viable cell
B3	1e-06 recombinants per viable cell
B4	4.7e-05 recombinants per viable cell
B5	0.0004 recombinants per viable cell
